For series [1], the target named is T1, ComFC (His6-ComFC) (Helicobacter pylori, UniProt O26008).
T1 construct: gene HP_1473; full length, 191 residues, His6 tag kept (six His codons added at 5' end; also called ComFC-6His), pET21a, E. coli BL21(DE3) Gold
T1 sequence (O26008 1-191): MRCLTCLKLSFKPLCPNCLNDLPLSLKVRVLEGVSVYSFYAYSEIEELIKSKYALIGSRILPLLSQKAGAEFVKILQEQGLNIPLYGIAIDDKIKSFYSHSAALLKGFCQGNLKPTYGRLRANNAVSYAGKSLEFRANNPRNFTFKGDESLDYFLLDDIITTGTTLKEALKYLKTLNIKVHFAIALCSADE
As to the kind of experiment: differential scanning fluorimetry (SYPRO Orange). Format: binding. The following applies: 20 mM Tris-Cl pH 7.5, 200 mM NaCl. On the technique in general: DSF heats the sample and reads unfolding from a dye or from intrinsic fluorescence.

For series [2], the target named is ComFC T165A (Helicobacter pylori 26695, UniProt O26008 1-191, T165A). Nature of the series: EMSA; no significant difference from WT. The conditions noted are these: protein: recombinant; label: 5'-Cy5. For orientation: Mobility shift assays separate free from complexed probe on a gel.
Series [3] deals with T2, ComFC WT (His6-ComFC) (Helicobacter pylori 26695, UniProt O26008 1-191).
T2 sequence: T1 sequence (O26008 1-191)
As to the kind of experiment: EMSA; EMSA: 10 mM Tris-HCl pH 7.5, 50 mM KCl, 1 mM DTT, 0.1 ug/ul BSA, 4 °C, 30 min; native 6% TBE-PAGE. The conditions noted are these: protein: recombinant; tags: His6 (text: codons added at 5' end, also written ComFC-6His); label: 5'-Cy5.

For `Nc1ncnc2c1ncn2[C@@H]1O[C@H](COP(=O)(O)OP(=O)(O)O)[C@@H](O)[C@H]1O` [ADP], in series [1], the dTm result was “ADP addition also resulted in an increase in melting temperature”.

B1: XV2 62-mer ssDNA (ssDNA)
DNA: TGGGTGAACCTGCAGGTGGGCAAAGATGTCCTAGCAATGTAATCGTCAAGCTTTATGCCGTT
In the case of B1, in series [2], the binding result is given as “binds”. In addition, the “apparent K (half saturation)” value in series [3] turned out to be 300 nM.

The record behind these values is PMC9005727, “ComFC mediates transport and handling of single-stranded DNA during natural transformation” (Nature Communications, 2022).
